Experimental data reported in patent US20060013804A1, “Modulation of stem cell differentiation by modulation of caspase-3 activity” (Ottawa Health Research Institute, priority 2002, published 2006).
“Also recorded” adds a separate entry of the source. Where a SMILES comes first, the peptide text is derived from it. The star is where a group is joined. Cbz = O=C(OCc1ccccc1)*; CH2F = FC*

How the values were obtained:
[1] = test system: clonally-derived CD1 neurospheres; experiment: Neurite extensions / morphology of differentiating neurospheres; format: cell-based, mouse; conditions: differentiation media up to 5 d, 2.0 μM inhibitor, vs DMSO
Protocol: Neurospheres were sub-cultured no more than once per collection. The differentiation of neurospheres was initated by plating spheres on poly-L-ornithine coated plates in NeuroCult Differentiation Medium in the absence of bFGF, as per manufacturer's instructions. […] All cultures received fresh media and inhibitor every 24 h for the duration of the experiment. Neurospheres from caspase 3 null embryos (Fernando, P., et al., (2002) Proc Natl Acad Sci USA 99, 11025-11030) were cultured as described above.
Immunocytochemistry: Neurospheres were collected at selected time points, fixed in 4% paraformaldehyde and prepared for immunostaining as previously described (Fernando, P., et al., (2002) Proc Natl Acad Sci USA 99, 11025-11030)). The primary antibody concentrations for anti-nestin, -GFAP, -MBP and -active caspase 3 (BioVision, USA) were titrated on wildtype CD1 neurospheres prior to their experimental use. These antibodies were visualized by counterstaining with either FITC or Cy3 conjugated secondary antibodies (Chemicon USA). Nuclei were localized with 4′,6-Diamidino-2 phenylindole (DAPI) (Sigma, USA). Cells were visualized using either an Axiovert 100 for transmission microscopy or Axioplan 2 for fluorescent microscopy (Zeiss, Germany) at selected magnifications. Captured images were processed using AxioVision Viewer 3.0 software.
Quantitation of Neurite Extensions: Neurites from differentiating neurospheres were estimated from a total of 6-8 neurospheres per condition over three independent experiments. To quantitated neuritis, the average diameter of an individual neurosphere was estimated from the vertical and horizontal distance. The number of extensions leaving the neurosphere body were then counted and an ratio of neurosphere extensions:average neurosphere diameter was calculated for each. All measurements including neurosphere diameter were evaluated using Scion Image.

C2C12 myoblasts [2] = experiment: C2C12 myoblast differentiation in low serum media with caspase inhibitors (MF20 staining, immunoblot of myogenic markers); format: cell-based, mouse; conditions: 20 μM inhibitor
Protocol: (§1) Myoblast culture. C2C12 cell (mouse skeletal muscle myoblast) cultures were grown and maintained in DMEM containing 10% FBS with 50 units/ml penicillin and 50 μg/ml streptomycin (Gibco). Differentiation was induced by incubating cultures in DMEM containing only a low serum concentration (2% horse serum). Caspase activity was measured using a Caspase-3 and Caspase-8 Fluorometric Assay Kit (Pharmingen). […] Control cells were treated with an equivalent amount of vehicle (DMSO). Primary myoblast cells were derived from skeletal muscles of the hind- and fore-limbs from 1-2 day old C57BL/6 wild-type, caspase-3 heterozygous and caspase-3 null mice (Frasch, S. C., et al., (1998) J. Biol. Chem. 273, 8389-8397; Kuida, K., et al., (1996) Nature 384, 368-372) (n=5 for each genotype) as described (Cregan, S. P. et al., (1999) J. Neuro. 19, 7860-7869.). To induce differentiation, primary myoblast cultures were incubated in DMEM containing 5% horse serum.
Protein isolation, immunoblot analyses and immunocytochemistry. Cells from C2C12 and primary myoblast cultures were washed with ice-cold PBS and lysed on ice for 45 minutes in modified-RIPA buffer containing 20 mM NaF, 5 mM Na3VO4 and 10 μg/ml each of aprotinin, leupeptin, pepstatin and PMSF. Total protein was measured using the BCA protein assay (Pierce). Immunoblot analyses were performed as described (Creasy, C. L., & Chernoff, J. (1995) J. Biol. Chem. 270, 21695-21700) using antibodies for MST1, MKK6, p38γ, and p38α (Upstate), p38 and MEF2C (Cell Signaling Technologies), myogenin F5D and myosin heavy chain MF20 mAb (Developmental Hybridoma Bank), and active caspase-3 (Biovision).
C2C12 myoblasts were fixed and stained with anti-MF20 as previously described (Cregan, et al., (1999) J. Neuro. 19, 7860-7869). Primary myoblast cultures were fixed in 4% paraformaldehyde, rinsed three times in PBS containing 0.01% Triton X-100 and stained as above. For both C2C12 and primary myoblast cultures, nuclei were detected by incubating cells for 10 min with 4,6-diamidino-2-phenylindole diluted 1:10000 in PBS.
Cells were fixed after 0, 2 and 4 days of differentiation and stained with the myosin heavy chain antibody MF20. […] In contrast, differentiation was more evident in cells that were incubated with caspase-8 inhibitor, z-LETD.fmk (FIG. 2B bottom panel, C).

[3] = molecular target: T1, human MST1 (Mammalian Sterile Twenty-like kinase), full length, in vitro translated from MST1-pcDNA3.1 Myc/His
T1 chain: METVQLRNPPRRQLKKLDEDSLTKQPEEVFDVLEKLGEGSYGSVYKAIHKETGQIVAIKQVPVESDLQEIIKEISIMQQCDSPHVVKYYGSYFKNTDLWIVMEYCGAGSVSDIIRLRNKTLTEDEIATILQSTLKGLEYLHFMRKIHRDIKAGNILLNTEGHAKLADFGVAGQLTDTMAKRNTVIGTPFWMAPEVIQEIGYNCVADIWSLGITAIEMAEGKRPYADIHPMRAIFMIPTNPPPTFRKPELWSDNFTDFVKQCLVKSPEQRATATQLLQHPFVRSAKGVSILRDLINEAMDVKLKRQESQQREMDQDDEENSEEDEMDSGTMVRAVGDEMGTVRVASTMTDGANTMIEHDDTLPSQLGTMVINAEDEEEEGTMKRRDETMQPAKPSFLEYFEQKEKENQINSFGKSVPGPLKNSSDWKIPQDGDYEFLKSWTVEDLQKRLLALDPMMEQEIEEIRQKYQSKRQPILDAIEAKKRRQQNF

C2C12 myoblasts [4] = experiment: Transfection of recombinant active caspase-3 protein into subconfluent C2C12 myoblasts in growth media; format: cell-based, mouse
Protocol: To further test a cell-autonomous role of caspase-3 in inducing myoblast differentiation, active caspase-3 protein was transfected into a subconfluent population of C2C12 myoblasts maintained in growth media. Sub-confluent C2C12 myoblasts were transfected with […] of recombinant active caspase-3 and examined after 12 h for the presence of myosin heavy chain (anti-MF20) detected using a FITC conjugated secondary antibody. A confluent population of cells were incubated in low serum media (differentiation media) to induce myoblast differentiation and examined after 12 h. In all cells examined, nuclei were localised with DAPI staining. The results are shown in FIG. 3, which is representative of 7 trials.

Histone H1 = Histone H1 targeted kinase assay of MST1 constructs immunoprecipitated from transfected COS1 cells; format: biochemical; conditions: transiently transfected COS1 cells, Histone H1 substrate
Protocol: (§2) Transfection Assays. The complete open reading frame of the human MST1, [Genbank Accession No. gi|1117790] obtained from a clone bank collection (Stratagene) was inserted into the expression vector pcDNA3.1 Myc/His (Invitrogen). A constitutively active MST1 (MST1-act) was prepared as previously described (Megeney, L. A., et al., (1996) Genes Dev 10, 1173-1183). The integrity of both MST1 and MST1-act were confirmed by sequencing. The kinase activity of these protein products were verified by transient transfection into COS1 cells followed by immunoprecipitation and kinase analysis using Histone-H1 as the target substrate (see below). Transfections with MST1 and MST1-act into both COS1 and primary myoblasts were performed using Lipofectamine Plus (Gibco) as directed in the manufacturer's instructions.
Co-immunoprecipitation and kinase analyses. Immunoprecipitation was performed using 150-200 μg of total protein, incubated in modified-RIPA buffer at 4° C. for 16 h containing the respective antibody. Samples were mixed for 1 h with 25 μl of a 50% Protein G (Pharmacia). For co-immunoprecipitation, immunoprecipitates were washed in modified-RIPA buffer, boiled in 1× Lamelli buffer, separated by SDS-PAGE and Western blotted for immunoblot analyses. […] Following SDS-PAGE, gels were dried and phospho-incorporation was analyzed by autoradiography. […]

[5] = test system: caspase-3-/- primary myoblasts; experiment: Transfection of MST1 constructs into caspase-3-/- primary myoblasts (rescue of myogenesis); format: cell-based, mouse; conditions: for myotube formation in caspase-3-/- myoblasts: transient transfection, primary caspase-3-/- myoblasts
Protocol: as §1, §2
To delineate the effect of MST1 on myogenesis, wild-type MST1, an activated MST1 (aa 1-330, MST1-act) or plasmid alone was transiently transfected into primary myoblasts derived from caspase-3^−/− mice. The activity of these constructs was verified by Histone H1 targeted kinase analysis of MST1 from transiently transfected COS1 cells (FIG. 5A).

[6] = test system: wildtype primary myoblasts; experiment: Transfection of MST1-act into wildtype primary myoblasts; format: cell-based, mouse
Protocol: as §1
Transfection Assays. The complete open reading frame of the human MST1, [Genbank Accession No. gi|1117790] obtained from a clone bank collection (Stratagene) was inserted into the expression vector pcDNA3.1 Myc/His (Invitrogen). A constitutively active MST1 (MST1-act) was prepared as previously described (Megeney, L. A., et al., (1996) Genes Dev 10, 1173-1183). The integrity of both MST1 and MST1-act were confirmed by sequencing. […]

For `CC[C@H](C)[C@H](NC(=O)OCc1ccccc1)C(=O)N[C@@H](CCC(=O)OC)C(=O)N[C@H](C(=O)N[C@@H](CC(=O)OC)C(=O)CF)[C@@H](C)O` [z-IETD.fmk] (Cbz-IE(OMe)TD(OMe)-CH2F), the “neurite extensions / morphological changes” value [1] was “did not affect morphological changes in neurosphere differentiation” and the “neurite extensions / morphological changes” value ([1]; listed as IETD) was “extensive neurite networking present”.

For `COC(=O)CC[C@H](NC(=O)[C@H](CC(C)C)NC(=O)OCc1ccccc1)C(=O)N[C@H](C(=O)N[C@@H](CC(=O)OC)C(=O)CF)[C@@H](C)O` [z-LETD.fmk] (Cbz-LE(OMe)TD(OMe)-CH2F), the myotube formation (C2C12 myoblasts [2]; C2C12, low serum media, MF20 staining, up to 4 days, vs DMSO) was “minor attenuation of myotube formation” and the degree of differentiation (C2C12 myoblasts [2]; C2C12, low serum, vs vehicle treated cells) was “remained below that observed in vehicle treated cells”.

`COC(=O)C[C@H](NC(=O)[C@H](C)NC(=O)[C@@H](NC(=O)OCc1ccccc1)C(C)C)C(=O)CF` [z-VAD.fmk] (Cbz-Val-Ala-Asp(OMe)-CH2F) was tested, and the “neurite extensions / morphological changes” value [1] was “gave results similar to caspase 3 inhibition”.

B1: caspase-3 (endogenous, in lysates or cultures of mouse C2C12 myoblasts and mouse CD1 neurospheres) (protein)
chain: SGIYLDSSYKMDYPEMGICIIINNKNFHKSTGMSSRSGTDVDAANLRETFMGLKYQVRNKNDLTREDILELMDSVSKEDHSKRSSFVCVILSHGDEGVIYGTNGPVELKKLTSFFRGDYCRSLTGKPKLFIIQACRGTELDCGIETDSGTDEEMACQKIPVEADFLYAYSTAPGYYSWRNSKDGSWFIQSLCSMLKLYAHKLEFMHILTRVNRKVATEFESFSLDSTFHAKKQIPCIVSMLTKELYFYH
In the case of B1, the “proteolytic cleavage of [35S]-methionine labelled MST1 by C2C12 lysates (SDS-PAGE, autoradiography)” value [3] is reported as “the lower 36 kDa MST1 fragment was not apparent in samples where caspase-3 activity was inhibited”, the “transfected cells undergoing differentiation” value (C2C12 myoblasts [4]; C2C12 in growth media, 20 µg protein, 12 h, myosin heavy chain immunodetection, n=4) is reported as over 95% and the “morphologic features of apoptosis” value (C2C12 myoblasts [4]; transfected C2C12 expressing myosin heavy chain) is reported as “did not display any morphologic features normally attributed to apoptosis”.

B2: MST1-act: constitutively active MST1 (aa 1-330) expressed from pcDNA3.1 Myc/His by transfection (protein, UniProt Q13043 1-330, looked up, fragment)
chain: METVQLRNPPRRQLKKLDEDSLTKQPEEVFDVLEKLGEGSYGSVYKAIHKETGQIVAIKQVPVESDLQEIIKEISIMQQCDSPHVVKYYGSYFKNTDLWIVMEYCGAGSVSDIIRLRNKTLTEDEIATILQSTLKGLEYLHFMRKIHRDIKAGNILLNTEGHAKLADFGVAGQLTDTMAKRNTVIGTPFWMAPEVIQEIGYNCVADIWSLGITAIEMAEGKPPYADIHPMRAIFMIPTNPPPTFRKPELWSDNFTDFVKQCLVKSPEQRATATQLLQHPFVRSAKGVSILRDLINEAMDVKLKRQESQQREVDQDDEENSEEDEMDSGTM
modifications: Myc/His tag
B2 was tested, and the “kinase activity of construct” value (Histone H1) was “high level of kinase activity”, the efficiency of differentiation ([5]; caspase-3 knockout myoblasts containing construct) was over 85% and the “myotube formation in caspase-3-/- myoblasts” value [5] was “elongated and fused with neighbouring cells to form multinucleated myotubes; also recorded: differentiated to form fused, multinucleated myotubes”. For the same molecule, the “myogenesis in wildtype myoblasts” value ([6]; 2 days in differentiation media, vs untransfected wildtype) was “comparable to wildtype cultures after 4-5 days of differentiation; also recorded: accelerated myogenesis after 2 days” and the “apoptosis on protracted differentiation” value ([6]; differentiation time course >4 days) was “enhanced apoptosis”.

B3: wild-type MST1: complete open reading frame of human MST1 in expression vector pcDNA3.1 Myc/His, transfected (protein)
chain: METVQLRNPPRRQLKKLDEDSLTKQPEEVFDVLEKLGEGSYGSVYKAIHKETGQIVAIKQVPVESDLQEIIKEISIMQQCDSPHVVKYYGSYFKNTDLWIVMEYCGAGSVSDIIRLRNKTLTEDEIATILQSTLKGLEYLHFMRKIHRDIKAGNILLNTEGHAKLADFGVAGQLTDTMAKRNTVIGTPFWMAPEVIQEIGYNCVADIWSLGITAIEMAEGKRPYADIHPMRAIFMIPTNPPPTFRKPELWSDNFTDFVKQCLVKSPEQRATATQLLQHPFVRSAKGVSILRDLINEAMDVKLKRQESQQREMDQDDEENSEEDEMDSGTMVRAVGDEMGTVRVASTMTDGANTMIEHDDTLPSQLGTMVINAEDEEEEGTMKRRDETMQPAKPSFLEYFEQKEKENQINSFGKSVPGPLKNSSDWKIPQDGDYEFLKSWTVEDLQKRLLALDPMMEQEIEEIRQKYQSKRQPILDAIEAKKRRQQNF
In the case of B3, the “myotube formation in caspase-3-/- myoblasts” value [5] is reported as “remained as mono-nucleated myoblasts”.
